Experimental data published in article PMC5703852, “Functional interplay between the transcription factors USF1 and PDX-1 and protein kinase CK2 in pancreatic β-cells” (Scientific Reports, 2017).

Molecular target: T1, GST-USF1 T100D (UniProt P22415 1-310, T100D)
T1 construct: USF1 with the CK2 phosphorylation site threonine 100 changed to the phospho-mimicking aspartic acid, as GST fusion; also called phospho-mimicking USF1_(T100D) mutant; source: bacterial expression, purified GST fusion protein
T1 sequence (P22415 whole entry T100D, the tested form may be a part): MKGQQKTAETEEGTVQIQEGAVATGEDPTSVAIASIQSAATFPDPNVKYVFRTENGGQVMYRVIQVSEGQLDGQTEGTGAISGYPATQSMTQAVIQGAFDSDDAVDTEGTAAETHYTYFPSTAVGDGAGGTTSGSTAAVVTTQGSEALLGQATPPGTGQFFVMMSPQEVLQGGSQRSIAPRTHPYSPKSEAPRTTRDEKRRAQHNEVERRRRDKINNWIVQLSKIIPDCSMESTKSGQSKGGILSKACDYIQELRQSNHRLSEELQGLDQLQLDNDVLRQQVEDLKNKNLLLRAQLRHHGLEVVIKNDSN
Assay: pull-down; 10 µg purified GST fusion protein on GSH-sepharose in PBS-T (PBS pH 7.4, 1% Tween 20), 2 h at 4 °C with 7.5 µl in vitro translated [35S]methionine-labelled partner; SDS-PAGE, Coomassie, autoradiography
Details: one partner purified

fold binding against wild-type or alanine mutant USF1: 3.5 fold
B1: in vitro translated PDX-1 (pRSET-PDX-1) (natural protein)
chain: not shown
modifications: [35S]methionine labelled
notes: mouse PDX-1 cDNA cloned in frame into the BamH1/HindIII sites of pRSETA; also called wild-type PDX-1; source: in vitro translated (from pRSET-PDX-1, Promega)
